Assay results from PMC10356863, “Architecture of the human G-protein-methylmalonyl-CoA mutase nanoassembly for B12 delivery and repair” (Nature Communications, 2023).
Substitutions are numbered along the chain they refer to.

Legend:
Assay in all cases: cell-based or functional assay
[1] = biological target: T1, human MMUT R228Q (patient variant) (human, UniProt P22033 33-750, R228Q)
T1 sequence: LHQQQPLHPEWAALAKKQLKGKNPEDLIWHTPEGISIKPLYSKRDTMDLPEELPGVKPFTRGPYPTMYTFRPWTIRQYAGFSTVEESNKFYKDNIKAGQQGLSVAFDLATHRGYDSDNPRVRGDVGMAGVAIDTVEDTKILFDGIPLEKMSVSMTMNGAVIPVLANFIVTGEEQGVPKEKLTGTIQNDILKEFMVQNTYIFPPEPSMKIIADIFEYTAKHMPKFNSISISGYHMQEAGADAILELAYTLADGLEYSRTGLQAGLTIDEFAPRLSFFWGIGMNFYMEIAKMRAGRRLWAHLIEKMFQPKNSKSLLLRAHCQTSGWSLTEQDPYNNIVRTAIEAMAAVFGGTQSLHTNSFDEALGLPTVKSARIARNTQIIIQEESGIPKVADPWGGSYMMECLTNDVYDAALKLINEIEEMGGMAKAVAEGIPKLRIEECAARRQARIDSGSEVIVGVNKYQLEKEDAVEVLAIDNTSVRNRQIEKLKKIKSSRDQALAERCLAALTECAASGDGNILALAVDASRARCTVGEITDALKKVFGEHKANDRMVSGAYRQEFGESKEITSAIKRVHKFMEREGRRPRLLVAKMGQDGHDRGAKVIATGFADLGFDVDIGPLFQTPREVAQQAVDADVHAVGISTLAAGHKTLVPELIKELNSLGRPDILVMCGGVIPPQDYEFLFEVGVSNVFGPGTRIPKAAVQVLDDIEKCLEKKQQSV

[2] = biological target: T2, human MMUT R616C (patient variant) (human, UniProt P22033 33-750, R616C)
T2 sequence: T1 sequence with Q196R, R584C

[3] = biological target: T3, human MMUT R694W (patient variant) (human, UniProt P22033 33-750, R694W)
T3 sequence: T1 sequence with Q196R, R662W

- GAP activation: GTPase activity of MMAA in the presence of MMUT, fold attenuation against wild-type MMUT [1]: 12 fold
- GAP activation: GTPase activity of MMAA in the presence of MMUT, fold attenuation against wild-type MMUT [2]: 7 fold
- GAP activation: GTPase activity of MMAA in the presence of MMUT, fold attenuation against wild-type MMUT [3]: 12 fold
B1: human MMAA (G-protein chaperone of MMUT), wild type (enzyme)
chain: KDHTEGLSDKEQRFVDKLYTGLIQGQRACLAEAITLVESTHSRKKELAQVLLQKVLLYHREQEQSNKGKPLAFRVGLSGPPGAGKSTFIEYFGKMLTERGHKLSVLAVDPSSCTSGGSLLGDKTRMTELSRDMNAYIRPSPTRGTLGGVTRTTNEAILLCEGAGYDIILIETVGVGQSEFAVADMVDMFVLLLPPAGGDELQGIKRGIIEMADLVAVTKSDGDLIVPARRIQAEYVSALKLLRKRSQVWKPKVIRISARSGEGISEMWDKMKDFQDLMLASGELTAKRRKQQKVWMWNLIQESVLEHFRTHPTVREQIPLLEQKVLIGALSPGLAADFLLKAFKSRD
